Assay results as given in US20240293316.

How the values were obtained:
[1] = molecular target: T1, NPR (micellar nanoparticles of PPAR, DEX-containing PPA with random peptide) (not fully specified)
T1 chain: GGSGSGSGWGERDGS

[2] = molecular target: T2, NPD (micellar nanoparticles of PPAD, DEX-containing PPA with D-MMP peptide) (not fully specified)
T2 chain: GPLGLAGGERDG

[3] = molecular target: T3, NPL (micellar nanoparticles of PPAL, DEX-containing PPA with L-MMP peptide) (not fully specified)
T3 chain: GPLGLAGGERDG

B1: thermolysin (protein)
chain: ITGTSTVGVGRGVLGDQKNINTTYSTYYYLQDNTRGNGIFTYDAKYRTTLPGSLWADADNQFFASYDAPAVDAHYYAGVTYDYYKNVHNRLSYDGNNAAIRSSVHYSQGYNNAFWNGSQMVYGDGDGQTFIPLSGGIDVVAHELTHAVTDYTAGLIYQNESGAINEAISDIFGTLVEFYANKNPDWEIGEDVYTPGISGDSLRSMSDPAKYGDPDHYSKRYTGTQDNGGVHINSGIINKAAYLISQGGTHYGVSVVGIGRDKLGKIFYRALTQYLTPTSNFSQLRAAAVQSATDLYGSTSQEVASVKQAFDAVGVK
B1 was tested, and the “nanoparticle cleavage experiment (TEM after thermolysin treatment, 1 µM thermolysin : 100 µM polymer, 24 hours at 37° C.)” value (shortened to “nanoparticle cleavage experiment”) [1] was “maintained their nanoparticle morphology”, the “nanoparticle cleavage experiment” value [2] was “maintained their nanoparticle morphology” and the “nanoparticle cleavage experiment” value [3] was “underwent cleavage induced aggregation”.
